Legend:
[1] = target: soluble human FcγRIIa^R131-GST (human) (UniProt P12318); assay: SPR (BIAcore 3000), antibody on CM5 chip, soluble dimeric receptor-GST injected, bivalent analyte model
[2] = target: soluble human FcγRIIb-GST (human) (UniProt P31994); assay: as above
[3] = target: soluble human FcγRIIa^R131-GST (human) (UniProt P12318); assay: SPR; ratio of the Kd for FcγRIIb-GST over that for FcγRIIa-GST
[4] = target: soluble human FcγRIIa^R131-GST (human) (UniProt P12318); assay: flow cytometry of E. coli spheroplasts displaying the full length IgG, 20 nM FcγRIIa-GST-Alexa488 in the presence of 100 nM unlabelled FcγRIIb-GST

Chain of soluble human FcγRIIa^R131-GST (human) (P12318 34-217 H167R): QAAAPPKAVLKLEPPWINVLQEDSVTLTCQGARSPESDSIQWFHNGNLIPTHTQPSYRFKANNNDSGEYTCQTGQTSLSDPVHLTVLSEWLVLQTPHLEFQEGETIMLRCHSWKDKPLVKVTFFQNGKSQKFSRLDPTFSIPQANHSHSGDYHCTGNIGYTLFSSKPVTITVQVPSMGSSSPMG
Chain of soluble human FcγRIIb-GST (human) (P31994 43-217): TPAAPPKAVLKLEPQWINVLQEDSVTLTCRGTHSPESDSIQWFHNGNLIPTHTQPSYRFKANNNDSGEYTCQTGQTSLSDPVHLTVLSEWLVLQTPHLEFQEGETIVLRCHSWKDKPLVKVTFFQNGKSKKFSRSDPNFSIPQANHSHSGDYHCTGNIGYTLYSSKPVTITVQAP

| Binder | Kd [1] [nM] | koff [1] [s⁻¹] | kon [1] [M⁻¹ s⁻¹] | Kd [2] [nM] | koff [2] [s⁻¹] | kon [2] [M⁻¹ s⁻¹] | KD2b/KD2a [3] | FACS mean value [4] | M (mean fluorescence intensity) [4] |
| --- | --- | --- | --- | --- | --- | --- | --- | --- | --- |
| aglycosylated Fc1001 trastuzumab (antibody, part only; not given: Fab (trastuzumab), IgG1, not shown: another chain or arm of the molecule, aglycosylated (T299A)) Fc: DKTHTCPPCPAPELLGGPSVFLFPPKPKDTLMISRTPEVTCVVVDVSPEDPEVKFNWYVDGVEVHNAKTKPREKQYNGAYRVVSVLTVLHQDWLNGKEYKCKVSNKALPAPIEKTISKAKGQPREPQVYTLPPSRDELTKSQVSLTCLVKGFYPSDIAVEWVSNGQPENNYKTTPPVLDSDGSFFLYSKLTVDKSRWQQGNVFSCSVLHEALHNHYTQKSLSLSPGK | 102 | 0.00352 | 34600 | 975 | 0.0194 | 19900 | 9.6 | 409 | 413 |
| aglycosylated Fc1003 trastuzumab (antibody, part only; not given: Fab (trastuzumab), IgG1, not shown: another chain or arm of the molecule, aglycosylated (T299A)) Fc: DKTHTCPPCPAPELLGGPSVFLFPPKPKDTLMISRTPEVTCVVVDVSHEDPEVKFNWYVDGVEVHNAKTKPREEQYNGAYRVVSVLTVLHQDWLNGKEYKCKVSNKALPAPIEKTISKAKGQPREPQVYTLPPSRDELTKNQVSLTCLVKGFYPSDIAVEWVSNGQPENNYETTPPMLDSDGSFFLYSKLTVDKSRWQQGNVFSCSVLHEALHNHYTQKSLSLSPGK | 389 | 0.0079 | 20300 | 1380 | 0.00866 | 6260 | 3.56 | 277 | – |

From patent publication US20120208238A1
